Measured values reported in PMC13233820 (2026).

How the values were obtained:
[1] = target: T1, yeast Smt3 (Smt3-6xHis) (S. cerevisiae, UniProt Q12306 1-101 = SUMO, U-[13C,15N] labelled in the NMR experiments); assay: ITC; Smt3 300 uM
T1 chain: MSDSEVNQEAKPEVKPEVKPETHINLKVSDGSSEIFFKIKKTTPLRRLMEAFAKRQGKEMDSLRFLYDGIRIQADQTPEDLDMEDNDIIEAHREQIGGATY

[2] = target: T1, yeast Smt3 (Smt3-6xHis); assay: ITC; Smt3 150 uM

Kd [1]: 15.3 µM
Kd [2]: 30.2 µM
Binder: ENDIIMVSTDE [synthetic Mre11-SIM3 peptide, wild type]
